Data published in the nanobody polyreactivity screen of Harvey et al. (2022).

test: yeast display, Sf9 membrane polyspecificity reagent, FACS + sequencing; frameworks hold sequencing errors
Procedure, shortened: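 Polyreactivity labels are assigned by the sorting gate from which each nanobody was recovered. The gates were low and high (top ~1%), set on anti-HA fluorescence for expression and streptavidin fluorescence for reagent binding. Before sorting, galactose-induced (36–48 hours) yeast display cells were stained for 1 hour at 4 °C with 10% biotinylated, detergent-solubilized Sf9 membrane reagent.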

Sequence	polyreactivity (PSR sort gate)
QVQLVESGGGLVQAGGSLRLSCAASGSIFSSNAMGWYRQAPGKERELVAAITRGGRTTYADSVKGRFTISRDNAKNTVYLQMNSLKPEDTAVYYCNAESYLTGWWVDYWGQGTQVTVSS	low polyreactivity
QVQLVESGGGLVQAGGSLRLSCAASGSIFSSNAMGWYRQAPGSTNYADSVKGRFTISRDNAKNTVYLQMNSLKPEDTAVYYCAKDYVLFQYVDFQDDDYWGQGTQVTVSS	low polyreactivity
QVQLVESGGGLVQAGGSLRLSCAASGSIFSSNAMVWYRPAPGKERELVAAIDYSGGRTYYADSVKGRFTISRDNPKNTVYLQMNSLKPEDTAVYYCAKLIPVHSRYDYWGQGTQVTVSS	low polyreactivity
QVQLVESGGGLVQAGGSLRLSCAASGSIFSSYAKGWYLQAPGKERELVAAISQSGGDTYYADSVKGRFTISRDNAKNTVYLEMNSLKPEDSAVYYCAASVWYYPMDYWGQGSQVTVSS	low polyreactivity
QVQLVESGGGLVQAGGSLRLSCAASGSIFSSYALGWYRQAPGKVRELVAAITKRADRTNYADSVKGRFTISRDNAKNTVYLQMNSLKPEDTAVYYCNAEGQNDHPSNGYISYKYDYWGQGTQVTVSS	low polyreactivity
QVQLVESGGGLVQAGGSLRLSCAASGSIFSSYAMGWYIQAPGKEMELVAGITWGGASTYYADSVKGRFTISRDNAKNTVYLQMNSLKPEDTAVYYCNRRAWVYYAPFTVIVLYGRDYWGQGTQVTVSS	low polyreactivity
QVQLVESGGGLVQAGGSLRLSCAASGSIFSSYAMGWYRQAPGKERELVAAITGRDGSTYYADSVKGRFTISRDNAKNTVYLQMNILKPEDTAVYYCAASRFYFPRTFGGYPKLASYDYWGQGTQVTVSS	low polyreactivity
QVQLVESGGGLVQAGGSLRLSCAASGSIFSSYAMGWYRQAPGKERELVAAITRRGGSTYYADSVKGRFTISRDNAKNTVYLQMNSLKPEDTAVYYCATGITARSRYGYWGQGTQVTVSS	high polyreactivity
QVQLVESGGGLVQAGGSLRLSCAASGSIFSSYVMGWYRQAPGKERELVAAITSRGGSTYCADSVKGRFTISRDNAKNTVYFQMKSLKPEDTAVYYCAKGGTTWYWSGYRSIYFRYDYWGQGTQVTVSS	high polyreactivity
QVQLVESGGGLVQAGGSLRLSCAASGSIFSTYAMGRYRQAPGKERELVAAITFGGGTTYYADSVKGRFTISRDNAKNTVYLQMNSLKPEDTAVYYCAARYYYGSWYFYYSDKYDYWGQGTKVTVSS	low polyreactivity
QVQLVESGGGLVQAGGSLRLSCAASGSIFSTYAMGWYRQAPGKERELVAAISGSGGRTYYADSVKGRFTISRDNAKNTVYLQMNSLKPEDTAVYYCAADGGSVKTPGYYYWGQGTQVTVSS	high polyreactivity
QVQLVESGGGLVQAGGSLRLSCAASGSIFSTYAMGWYRQAPGKERELVASISRRGGSTYYADSVKGRFTISRDNAKNTVYLQMNSLKPEDTAVYYCNASGGPYRFYYWGQGTQVTVSS	low polyreactivity
QVQLVESGGGLVQAGGSLRLSCAASGSIFSTYAMGWYRQAPGKERELVATIRRGGSTYYADSVKGRFTISRDNAKNTVYLQMNSLKPEETAVYYCAGTVSSYPYYRYYTWGQGTQVTVSS	high polyreactivity
QVQLVESGGGLVQAGGSLRLSCAASGSIFSVNAMGWYRQAPGKEREFVAGISTSGGSTYYADSVKGRFTISRDNAKNTVYLQMNSLKPEDTAVYYCAKGNFLYWQVRYYRPYKSRFYYWGQGTQVTVSS	low polyreactivity
QVQLVESGGGLVQAGGSLRLSCAASGSIFSVNTMGWNRKAPGKERELVATIRTGDSTNYADSVKGRFTISRDNAKNSVYLQMNSLKPEDTAVYYCAAEWSSMNFDYWGQGTQVNVSS	low polyreactivity
QVQLVESGGGLVQAGGSLRLSCAASGSIFSVYAMGWYRQAPGKEREFVASISGGSGRTYYADSVKGRFTISRDNAKNTVYLQMNSLKPEDTAVYYCDAVLRYTSLSHDYHYKYDYWGQGTQVTVSS	low polyreactivity
QVQLVESGGGLVQAGGSLRLSCAASGSIFSVYAMGWYRQAPGKERELVAGITRGGSTYADSVKGRFTISRDNAKNTVYLQMNSLKPEDTAVSYCAADALIATPSWGKYNYWGQGTQVTVSS	high polyreactivity
QVQLVESGGGLVQAGGSLRLSCAASGSIFSVYVMGWYRPAPGKERELVATISSGGGTYYADSVKGRFTISRDNAKNTVYLQMNSLKPEDTAVYYCYADWDDWKGDYWGQGTQVTVSS	low polyreactivity
QVQLVESGGGLVQAGGSLRLSCAASGSIFSWYAMAWYRQAPGKETELVADITWTVGSTYYADSVKGRFTISRDNAKNPVYLQMNSLIPEDTAVYYWAARRVVYRYYWYSAYDYSGQGTQVTVSS	high polyreactivity
QVQLVESGGGLVQAGGSLRLSCAASGSIFSWYAMGWYRQAPGKEREFVAAITWGTGGTYYADSVKGRFTISRDNAKNTVYLQMNSLKLEDTAVYYCAKTRSYGRSGVSRRYGFYYWGQGTQVTVSS	high polyreactivity
QVQLVESGGGLVQAGGSLRLSCAASGSIFSYNVMGWYRQAPGKERELVAAISYGGGSTYYADSVKGRFTISRDTAKNTVYLQMNSLKPEDTAVYYCAARKWYTYYPYDYWGQGTQVTVSS	high polyreactivity
QVQLVESGGGLVQAGGSLRLSCAASGSIFSYYAMGWYRQAPGKERELVAAIDRSGVSTYYADSVKGRFTISRDNAKNTVYLQMNSLKPEDTAVYYCNTDHRNICFRFKYDYWGQGTQVTVSS	high polyreactivity
QVQLVESGGGLVQAGGSLRLSCAASGSIFSYYAMGWYRQAPGKERELVAAIRRGGSTNYADSVKGRFTNSRDNAKNTVYLQMNSLKPEDTAVYYCAASLGWRFYYWGQGSQVTVSS	high polyreactivity
QVQLVESGGGLVQAGGSLRLSCAASGSIFSYYAMGWYRQAPGKERELVAAISSRGDGRTYYADSVKGRFTISRDNAKNTVYLQMNSLKPEDTAVYYCAAESSHYRLRDRDYWGQGTQVTVSS	high polyreactivity
QVQLVESGGGLVQAGGSLRLSCAASGSIFSYYAMGWYRQAPGKERELVAAISYTGGTTYYADSVKGRFTISRDNAKNTVYLQMNSLKPEDTAVYYCAAQWWWNRPVRYEYWGQGTQVTVSS	low polyreactivity
QVQLVESGGGLVQAGGSLRLSCAASGSIFSYYAMGWYRQAPGKERELVAAITSGGSTYYADSVKGRFTISRDNAKNTVYLQMNSLKPEDTAVYYCAREKWPSQYDYWGQGTQVTVSS	low polyreactivity
QVQLVESGGGLVQAGGSLRLSCAASGSIFSYYAMGWYRQAPGKERELVAAITSGGSTYYSDSVKGRFTISRDNAKNTVYLQMNSLKPEDTAVYYCAREKWPSQYDYWGQGTQVTVSS	low polyreactivity
QVQLVESGGGLVQAGGSLRLSCAASGSIFSYYAMGWYRQAPGKERELVAAITTSGGSTYYADSVKGRFTISRDNAKNTVYLQMNSLKPEDTAVYYCAVDQYDRTTAFWYWYPYYYWGQGTQVTVSS	low polyreactivity
QVQLVESGGGLVQAGGSLRLSCAASGSIFSYYAMGWYRQAPGKERELVAAITWSGGTTYYADSVKGRFTISRDNAKNTVYLQMNSLKPEDTAVYYCAADTYDYWYGVWLEYDYWGQGTQVTVSS	high polyreactivity
QVQLVESGGGLVQAGGSLRLSCAASGSIFSYYAMGWYRQAPGKERELVADITANDGSTYYADSVKGRFTISRDNAKNTVYLQMNSLKPEDTAVYYCAAEYYYPIWGPYDYWGQGTQVTVSS	high polyreactivity
